The values that follow come from the RNAGym collection of RNA variant scans (doi:10.1073/pnas.2313332121).

B1: TPR 5TU (parent)
chain: GGAUCUUCUCGAUCUAACAAAAAAGACAAAUCUGCCACAAAGCUUGAGAGCAUCUUCGGAUGCAGAGGCGGCAGCCUUCGGUGGCGCGAUAGCGCCAACGUUCUCAACUAUGACACGCAAAACGCGUGCUCCGUUGAAUGGAGUUUAUCAUG

This sample holds only a part of the variants without activity.

Variants of B1 are the subject of this data set. Description: polymerase ribozyme fitness, log enrichment relative to wild type (log ratio); higher = more active; in vitro selection for triplet polymerase activity. The method in brief:
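To select mutant libraries of each subunit of a heterodimeric triplet polymerase ribozyme, built by PCR and transcribed, each was annealed with a biotinylated primer, partner subunit and triplets, then incubated frozen at −7 °C. Extended constructs were gel-excised, captured on streptavidin beads and amplified by RT-PCR, in one round carried out in triplicate. Illumina sequencing of input and output libraries kept genotypes with ≥10 input reads and ≥1 read per output. Fitness is the base-2 logarithm of genotype enrichment relative to wild-type enrichment, from inverse-variance-weighted replicate averages.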
For the variant A41G U53A U55A A91U C99A U148A, the “polymerase ribozyme fitness (log ratio)” value was at most -4.2.
The value for G42A A49C G62C U77C G88A C96A C132G was at most -4.2; that for A41U G58A A60U C93G was at most -4.2.
The value for A41U G81A was -0.718; that for A40U C114G was -3.04; that for A41U C51U C85A A115U A142U was at most -4.2.
The value for A41C U55G G81A C85U was -0.432; that for A41C G50A U55G U56A G65U G68A U102A G140U was at most -4.2; that for A40U G83A C95A A115U G128U C129A was at most -4.2.
A41U G92U G141A: the “polymerase ribozyme fitness (log ratio)” value is -1.22.
The value for G42A was -3.47; that for A41C G50C G84A A119G was -3.83; that for A41C U56A G83U U127C G152A was -4.07.
The value for A41G G58A U82G U144A U145C was 0.156; that for A41C G92A was -3.32.
The value for A40U U104C C108A was at most -4.2; that for A41U G86U was -1.92.
As for A41U A49G G58C G92A C95A C123A, the “polymerase ribozyme fitness (log ratio)” value was at most -4.2.
The value for A41U G58A G81C was -0.606.
The value for A41U C54A G92A was at most -4.2.
The value for G42A A52C G94U A97G U144A was at most -4.2.
As for A40U U82G G84U C93A C99A U109G G136U, the “polymerase ribozyme fitness (log ratio)” value was at most -4.2.
The value for A41G G58U G59C was -0.488; that for A41U G46A G59A G86C was at most -4.2.
The value for A41U U55G was -0.663.
The value for A40U G92U A119G was -0.619.
On to A41C A49G C51A G71U C93A C95U U111G, for which the “polymerase ribozyme fitness (log ratio)” value was at most -4.2.
The value for G42A A66U A89G U145A was at most -4.2.
Take A41G: the “polymerase ribozyme fitness (log ratio)” value was 0.583.
Take A41C: the “polymerase ribozyme fitness (log ratio)” value was -0.379.
The value for A41U was -0.621.
The value for A41U U102C U146G was -3.93; that for A41C A150U was 0.683.
The value for A41U C96U A122C was -1.02; that for A41U G92A was -3.1; that for A41C G84A U109G was -3.33.
For A41C G92U C103U C123G, the “polymerase ribozyme fitness (log ratio)” value was -1.2.
The value for A41C U56A G70U C75G C93U C132U G136C was at most -4.2; that for A41C G92U U145A A150C was -2.83.
The value for A41C C93G C105U was -2.84.
The value for A40U G117C was -0.102; that for A41G U45C C57U G92A C108G was -3.34; that for A41G U55A C57G was 0.000485.
Regarding A40U G84U G136U, the “polymerase ribozyme fitness (log ratio)” value was -3.66.
The value for A41C C76G C96U was at most -4.2; that for A41U A52U U55C A66U was at most -4.2; that for A41C U151G was -3.63.
Consider A41C C123U G126A U135G, for which the “polymerase ribozyme fitness (log ratio)” value is -3.4.
For the variant A41U U77A, the “polymerase ribozyme fitness (log ratio)” value is at most -4.2.
The value for A41U G42A U44C A64U C76G C96U A107U was at most -4.2; that for A41C A49C G92A A106C was at most -4.2.
The value for A41G A52G U77G C87U G100C C103G A138G was at most -4.2.
In the case of A41C U61G C79U G84C, the “polymerase ribozyme fitness (log ratio)” value is at most -4.2.
The value for A41U G42C C76G was at most -4.2; that for A40U G50C A91G U104A was at most -4.2.
A41G U56G G58U G81A G84A C116U C149U: the “polymerase ribozyme fitness (log ratio)” value is -1.86.
The value for A41U G88C was at most -4.2; that for A41C G62A G65C A89C C95G U151A was at most -4.2; that for A41U U56A was -0.813.
The value for A41U G46A U61A G84U C105U C118U was -3.26.
The value for A41U U56A G84U C118A C125G was -4.09; that for A41C A49C U77C G86C C96U U101G C118G was at most -4.2.
Regarding A41C G50A A52G A120C, the “polymerase ribozyme fitness (log ratio)” value was -2.96.
Regarding A41U U53G U56C U146C U151G, the “polymerase ribozyme fitness (log ratio)” value is at most -4.2.
For A41G C54U, the “polymerase ribozyme fitness (log ratio)” value stood at 0.979.
The value for A40U G58A was 0.274; that for A41C G67C C85A C131U A137G was at most -4.2.
The value for A41G U53A G59C A98G U102C G133A was at most -4.2; that for A41U C57G A120G was -2.19; that for A41U G70A was -3.15.
The value for A40U U44A C57U C76G A91U U134C G136C was at most -4.2; that for A41C A47C G59A A60G C85A U127G A137G was at most -4.2; that for A41U A52G C96A was -3.24.
Consider A40U U90G C118G G133C U148G, for which the “polymerase ribozyme fitness (log ratio)” value is at most -4.2.
The value for A41C C93A A97C was -3.96; that for A41G C57A was 0.0695; that for A41C C79U C95U was -3.78.
As to A41G G84U C116U G136U, the “polymerase ribozyme fitness (log ratio)” value is -3.6.
The value for A40U U45G was -0.54; that for A41U G74U C75A A91G U145A U151G was at most -4.2.
The value for A41C G81C U82C A97C was -0.593; that for A41U G141A A150G was -4.16; that for A41G C63G G74A C75U G92U U144C was -3.87.
